Data on 2 substances can be found in patent US20130034559A1.

For experiment [1], the target named is human B7-H1 expressed on cells (human) (UniProt Q9NZQ7). Briefly: FACS, 5 µg/ml isotype control, 293T cells transfected with human B7-H1. (In general: A flow cytometer gives signals particle by particle.)
For experiment [2], the target named is human B7-DC on 293T cells (human) (UniProt Q9BQ51). The experiment is described as follows: FACS, 5 µg/ml isotype control, 293T cells transfected with human B7-DC.
Chain of human B7-DC on 293T cells (human) (Q9BQ51 20-273): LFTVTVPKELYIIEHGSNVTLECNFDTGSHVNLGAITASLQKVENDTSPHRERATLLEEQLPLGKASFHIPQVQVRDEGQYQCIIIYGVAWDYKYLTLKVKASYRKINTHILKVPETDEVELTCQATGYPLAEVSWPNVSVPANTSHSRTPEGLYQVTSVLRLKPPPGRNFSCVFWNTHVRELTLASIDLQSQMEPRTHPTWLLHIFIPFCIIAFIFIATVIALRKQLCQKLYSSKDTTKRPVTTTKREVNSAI
Experiment [3] addresses human B7-H1 expressed on cells (human) (UniProt Q9NZQ7). Briefly: FACS, 1 µg/ml isotype control, anti-CD3-activated human T cells.
The target of experiment [4] is mouse B7-H1 on J558 cells (mouse) (UniProt Q9EP73). Briefly: FACS, 5 µg/ml isotype control, J558 cells expressing mouse B7-H1.
Chain of mouse B7-H1 on J558 cells (mouse) (Q9EP73 19-290): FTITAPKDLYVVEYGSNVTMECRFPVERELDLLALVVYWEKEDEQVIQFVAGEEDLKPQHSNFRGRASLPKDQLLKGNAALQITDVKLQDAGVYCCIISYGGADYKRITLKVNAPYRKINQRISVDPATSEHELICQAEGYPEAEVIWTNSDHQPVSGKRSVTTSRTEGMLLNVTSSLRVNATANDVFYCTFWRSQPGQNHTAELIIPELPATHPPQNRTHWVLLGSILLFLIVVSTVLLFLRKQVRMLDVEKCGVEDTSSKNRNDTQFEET
Experiment [5] addresses cynomolgus monkey B7-H1 expressed on cells (cynomolgus monkey) (UniProt G7PSE7). Briefly: FACS, 1 µg/ml isotype control, anti-CD3-activated cynomolgus monkey T cells.

Chain of human B7-H1 expressed on cells (human) (Q9NZQ7 19-290): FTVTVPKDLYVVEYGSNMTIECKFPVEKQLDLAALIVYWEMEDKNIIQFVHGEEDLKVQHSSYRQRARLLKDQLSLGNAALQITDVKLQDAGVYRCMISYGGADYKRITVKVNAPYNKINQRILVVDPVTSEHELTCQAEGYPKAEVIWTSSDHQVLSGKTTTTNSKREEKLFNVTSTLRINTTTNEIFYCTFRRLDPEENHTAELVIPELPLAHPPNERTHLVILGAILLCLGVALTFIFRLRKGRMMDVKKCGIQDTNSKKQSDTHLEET
Chain of cynomolgus monkey B7-H1 expressed on cells (cynomolgus monkey) (G7PSE7 entry or part of it): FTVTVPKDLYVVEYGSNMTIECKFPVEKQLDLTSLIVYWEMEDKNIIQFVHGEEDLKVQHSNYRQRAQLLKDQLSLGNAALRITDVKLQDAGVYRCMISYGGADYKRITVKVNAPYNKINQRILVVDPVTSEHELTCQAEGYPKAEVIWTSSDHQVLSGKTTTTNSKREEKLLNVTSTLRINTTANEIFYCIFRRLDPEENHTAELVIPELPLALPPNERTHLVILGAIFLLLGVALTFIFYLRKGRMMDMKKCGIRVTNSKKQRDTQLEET

As for irrelevant human IgG2 antibody, the geo mean in experiment [1] was determined as 7.6; in experiment [2], 9.5; in experiment [3], 10; in experiment [4], 3.1.
Consider irrelevant human IgG4 antibody, for which the geo mean in experiment [5] is 17.6; in experiment [1], 10.7; in experiment [2], 8.8; in experiment [3] it was 10; in experiment [4], 3.2.
